Positions count from the first letter of the chain named. Numbers in names are those of the source. One block for each binder: values may come before it.
What was measured:
[1] = target: T1, Recombinant Human DLL4 (delta-like protein 4) (human, UniProt Q9NR61 27-524); assay: ELISA on coated DLL4, Fab at 6.25 nM (2-fold serial dilution)
T1 construct: also called rHuman DLL4; Delta-like 4

[2] = target: T1, Recombinant Human DLL4 (delta-like …); assay: ELISA on coated DLL4, Fab at 100 nM (2-fold serial dilution)
[3] = target: T1, Recombinant Human DLL4 (delta-like …); assay: ELISA on coated DLL4, Fab at 3.125 nM (2-fold serial dilution)
[4] = target: T1, Recombinant Human DLL4 (delta-like …); assay: ELISA on coated DLL4, Fab at 12.5 nM (2-fold serial dilution)
[5] = target: T1, Recombinant Human DLL4 (delta-like …); assay: ELISA on coated DLL4, Fab at 25 nM (2-fold serial dilution)
[6] = target: T1, Recombinant Human DLL4 (delta-like …); assay: ELISA on coated DLL4, Fab at 50 nM (2-fold serial dilution)
[7] = target: T2, Recombinant Human DLL4 (delta-like protein 4) (human, UniProt Q9NR61 27-524); assay: ECL (Meso Scale Discovery) binding assay on immobilised recombinant human DLL4; Fab concentration not given
T2 construct: Bought recombinant protein (R&D Systems Cat#1506-D4/CF); also called rHuman DLL4; Delta-like 4

- ELISA signal [1]: 0.303
- ELISA signal [2]: 0.529
- ELISA signal [3]: 0.246
- ELISA signal [4]: 0.309
- ELISA signal [5]: 0.365
- ELISA signal [6]: 0.456
B1: Fab VH5-51_IGHD5-18*01>3_IGHJ4*01 G100K/G104T S28R & V3-4_IGLJ1*01 (Fab, V domains shown)
VH: EVQLVQSGAEVKKPGESLKISCKGSGYRFTSYWIGWVRQMPGKGLEWMGIIYPGDSDTRYSPSFQGQVTISADKSISTAYLQWSSLKASDTAMYYCARRKYSYTYDYFDYWGQGTLVTVSS
VL: QTVVTQEPSFSVSPGGTVTLTCGLSSGSVSTSYYPSWYQQTPGQAPRTLIYSTNTRSSGVPDRFSGSILGNKAALTITGAQADDESDYYCVLYMGSGISYVFGTGTKVTVL
notes: Fab; also called H:KT S28R & L:parent; H:KT S28R & L:wt

- ECL signal [7]: 17800
B2: Fab VH5-51_IGHD5-18*01>3_IGHJ4*01 G100K/G104T (H:KT) & V3-4_IGLJ1*01 G23A, N175K (Fab, V domains shown)
VH: B1 VH with R28S
VL: QTVVTQEPSFSVSPGGTVTLTCALSSGSVSTSYYPSWYQQTPGQAPRTLIYSTNTRSSGVPDRFSGSILGNKAALTITGAQADDESDYYCVLYMGSGISYVFGTGTKVTVLG
notes: also called G100K/G104T & G23A/N175K

- ECL signal [7]: 9360
B3: Fab VH5-51_IGHD5-18*01>3_IGHJ4*01 G100K/G104T (H:KT) & V3-4_IGLJ1*01 (Fab, V domains shown)
VH: B1 VH with R28S
VL: B1 VL
notes: Tested as Fab made in E. coli: VH joined to CH1 (Plasmid A, His and Flag tags), VL joined to lambda CL (Plasmid E); also called H:KT & L:wt; KT double mutant

- ECL signal [7]: 7550
B4: Fab VH5-51_IGHD5-18*01>3_IGHJ4*01 G100K/G104T (H:KT) & V3-4_IGLJ1*01 T78S (Fab, V domains shown)
VH: B1 VH with R28S
VL: B1 VL with T78S
notes: Fab with CH1 and lambda CL from the expression plasmids; also called G100K/G104T & T78S

- ECL signal [7]: 12200
B5: Fab VH5-51_IGHD5-18*01>3_IGHJ4*01 G100K/G104T (H:KT) & V3-4_IGLJ1*01 S25A, A116T (Fab, V domains shown)
VH: B1 VH with R28S
VL: B2 VL with A23G, S25A
notes: also called G100K/G104T & S25A/A116T; named S52A/A116T in the running text

- ECL signal [7]: 10600
B6: Fab VH5-51_IGHD5-18*01>3_IGHJ4*01 G100K/G104T (H:KT) & V3-4_IGLJ1*01 T78E (Fab, V domains shown)
VH: B1 VH with R28S
VL: B1 VL with T78E
notes: Fab with CH1 and lambda CL from the expression plasmids; also called G100K/G104T & T78E

- ECL signal [7]: 9620
B7: Fab VH5-51_IGHD5-18*01>3_IGHJ4*01 G100K/G104T (H:KT) & V3-4_IGLJ1*01 T78K (Fab, V domains shown)
VH: B1 VH with R28S
VL: B1 VL with T78K
notes: Fab with CH1 and lambda CL from the expression plasmids; also called G100K/G104T & T78K

- ECL signal [7]: 9830
B8: Fab VH5-51_IGHD5-18*01>3_IGHJ4*01 G100K/G104T (H:KT) & V3-4_IGLJ1*01 T78V (Fab, V domains shown)
VH: B1 VH with R28S
VL: B1 VL with T78V
notes: Fab with CH1 and lambda CL from the expression plasmids; also called G100K/G104T & T78V

— US20120316071A1 (published 2012)
